Reference: patent US7601357B2 (priority 2005, dated 2009)

Tests used:
[1] = type: biochemical, M. tuberculosis; conditions: pH 8

Row | Molecule | TG hydrolase activity [1] | other results
1 | LIPI: M. tuberculosis putative lipase/esterase gene product expressed in E. coli (protein, UniProt P71668 1-320, looked up, expressed in E. coli) Esterase LipI: MPSLDNTADEKPAIDPILLKVLDAVPFRLSIDDGIEAVRQRLRDLPRQPVHPELRVVDLAIDGPAGPIGTRIYWPPTCPDQAEAPVVLYFHGGGFVMGDLDTHDGTCRQHAVGADAIVVSVDYRLAPEHPYPAAIEDAWAATRWVAEHGRQVGADLGRIAVAGDSAGGTIAAVIAQRARDMGGPPIVFQLLWYPSTLWDQSLPSLAENADAPILDVKAIAAFSRWYAGEIDLHNPPAPMAPGRAENLADLPPAYIAVAGYDPLRDDGIRYGELLAAAGVPVEVHNAQTLVHGYVGYAGVVPAATEATNRGLVALRVVLHG | 0 nmol/mg/min | 
2 | LIPU: M. tuberculosis putative lipase/esterase gene product expressed in E. coli (protein, UniProt O53424 1-297, looked up, expressed in E. coli) Esterase LipU: MAVRPVLAVGSYLPHAPWPWGVIDQAARVLLPASTTVRAAVSLPNASAQLVRASGVLPADGTRRAVLYLHGGAFLTCGANSHGRLVELLSKFADSPVLVVDYRLIPKHSIGMALDDCHDGYRWLRLLGYEPEQIVLAGDSAGGYLALALAQRLQEVGEEPAALVAISPLLQLAKEHKQAHPNIKTDAMFPARAFDALDALVASAAARNQVDGEPEELYEPLEHITPGLPRTLIHVSGSEVLLHDAQLAAAKLAAAGVPAEVRVWPGQVHDFQVAASMLPEAIRSLRQIGEYIREATG | 0 nmol/mg/min | 
3 | LIPM: M. tuberculosis putative lipase/esterase gene product expressed in E. coli (protein, UniProt Q50681 1-431, looked up, expressed in E. coli) Probable carboxylic ester …: MGAPRLIHVIRQIGALVVAAVTAAATINAYRPLARNGFASLWSWFIGLVVTEFPLPTLASQLGGLVLTAQRLTRPVRAVSWLVAAFSALGLLNLSRAGRQADAQLTAALDSGLGPDRRTASAGLWRRPAGGGTAKTPGPLRMLRIYRDYAHDGDISYGEYGRANHLDIWRRPDLDLTGTAPVLFQIPGGAWTTGNKRGQAHPLMSHLAELGWICVAINYRHSPRNTWPDHIIDVKRALAWVKAHISEYGGDPDFIAITGGSAGGHLSSLAALTPNDPRFQPGFEEADTRVQAAVPFYGVYDFTRLQDAMHPMMLPLLERMVVKQPRTANMQSYLDASPVTHISADAPPFFVLHGRNDSLVPVQQARGFVDQLRQVSKQPVVYAELPFTQHAFDLLGSARAAHTAIAVEQFLAEVYATQHAGSEPGPAVAIP | 0.02 nmol/mg/min | 
4 | LIPN: M. tuberculosis putative lipase/esterase gene product expressed in E. coli (protein, UniProt P95125 1-376, looked up, expressed in E. coli) Carboxylic ester hydrolase …: MTKSLPGVADLRLGANHPRMWTRRVQGTVVNVGVKVLPWIPTPAKRILSAGRSVIIDGNTLDPTLQLMLSTSRIFGVDGLAVDDDIVASRAHMRAICEAMPGPQIHVDVTDLSIPGPAGEIPARHYRPSGGGATPLLVFYHGGGWTLGDLDTHDALCRLTCRDADIQVLSIDYRLAPEHPAPAAVEDAYAAFVWAHEHASDEFGALPGRVAVGGDSAGGNLSAVVCQLARDKARYEGGPTPVLQWLLYPRTDFTAQTRSMGLFGNGFLLTKRDIDWFHTQYLRDSDVDPADPRLSPLLAESLSGLAPALIAVAGFDPLRDEGESYAKALRAAGTAVDLRYLGSLTHGFLNLFQLGGGSAAGTNELISALRAHLSRV | 0 nmol/mg/min | 
5 | LIPV: M. tuberculosis putative lipase/esterase gene product expressed in E. coli (protein, UniProt L0TC47 1-261, looked up) Lipase LipV: MIIDLHVQRYGPSGPARVLTIHGVTEHGRIWHRLAHHLPEIPIAAPDLLGHGRSPWAAPWTIDANVSALAALLDNQGDGPVVVVGHSFGGAVAMHLAAARPDQVAALVLLDPAVALDGSRVREVVDAMLASPDYLDPAEARAEKATGAWADVDPPVLDAELDEHLVALPNGRYGWRISLPAMVCYWSELARDIVLPPVGTATTLVRAVRASPAYVSDQLLAALDKRLGADFELLDFDCGHMVPQAKPTEVAAVIRSRLGPR | 0 nmol/mg/min | 
6 | LIPY: M. tuberculosis long-chain TG hydrolase, HSL family lipase, expressed His-tagged in E. coli (protein, listed as Mycobacterium tuberculosis, His6 tag, M. tuberculosis long-chain TG hydrolase, HSL family lipase, expressed His-tagged in E. coli) EYVVAIHGGAFILPPSIFHWLNYSVTAYQTGATVQVPIYPLVQEGGTAGTVVPAMAGLSNVSVVGDSAGGNLALAAAQYMVSQGNPVPSSMVLLSPWLDVGTWQISQAWAGNLAVNLPPTYVYSGSLDPLAQQAVVLEHTAVVQGAPFSFVLAPWQIHDWILLTPWGLLSWPQINQQL | 48.6 nmol/mg/min | Rate of [14C]diolein hydrolysis (20 mM diolein emulsion): 316.8 ± 9.0 nmol/mg/min; Storage stability (60 days at 4° C. and 4 cycles of freezing at −20° C. followed by thawing): retained nearly all of its original activity; Temperature stability of lipase activity (held at 50° C. or higher for 15 min prior to assay): dropped off sharply; Fatty acid release from other substrates (phosphatidylcholine, phosphatidyl ethanolamine or hexadecyl palmitate, data not shown): did not show any fatty acid release; Km (read-out: apparent Km, triolein, double-reciprocal plot): 7.57 mM; Vmax (triolein, double-reciprocal plot): 653.3 nmol/mg/min
7 | LIPJ: M. tuberculosis putative lipase/esterase gene product expressed in E. coli (protein, UniProt O07732 1-462, looked up, expressed in E. coli) Bifunctional lipase/adenylate …: MAQAPHIHRTRYAKCGDMDIAYQVLGDGPTDLLVLPGPFVPIDSIDDEPSLYRFHRRLASFSRVIRLDHRGVGLSSRLAAITTLGPKFWAQDAIAVMDAVGCEQATIFAPSFHAMNGLVLAADYPERVRSLIVVNGSARPLWAPDYPVGAQVRRADPFLTVALEPDAVERGFDVLSIVAPTVAGDDVFRAWWDLAGNRAGPPSIARAVSKVIAEADVRDVLGHIEAPTLILHRVGSTYIPVGHGRYLAEHIAGSRLVELPGTDTLYWVGDTGPMLDEIEEFITGVRGGADAERMLATIMFTDIVGSTQHAAALGDDRWRDLLDNHDTIVCHEIQRFGGREVNTAGDGFVATFTSPSAAIACADDIVDAVAALGIEVRIGIHAGEVEVRDASHGTDVAGVAVHIGARVCALAGPSEVLVSSTVRDIVAGSRHRFAERGEQELKGVPGRWRLCVLMRDDATRTR | 0.04 nmol/mg/min | 
8 | LIPQ: M. tuberculosis putative lipase/esterase gene product expressed in E. coli (protein, UniProt I6Y9F7 1-421, looked up) Esterase LipQ: MHIASVTSRCSRAGAEALRQGAQLAADARDTCRAGALLLRGSPCAIGWVAGWLSAEFPARVVTGHALSRISPRSIGRFGTSWAAQRADQILHAALVDAFGPDFRDLVWHPTGEQSEAARRSGLLNLPHIPGPHRRYAAQTSDIPYGPGGRENLLDIWRRPDLAPGRRAPVLIQVPGGAWTINGKRPQAYPLMSRMVELGWICVSINYSKSPRCTWPAHIVDVKRAIAWVRENIADYGGDPDFITITGGSAGAHLAALAALSANDPALQPGFESADTAVQAAAPYYGVYDLTNAENMHEMMMPFLEHFVMRSRYVDNPGLFKAASPISYVHSEAPPFFVLHGEKDPMVPSAQSRAFSAALRDAGAATVSYAELPNAHHAFDLAATVRSRMVAEAVSDFLGVIYGRRMGARKGSLALSSPPAS | 0.11 nmol/mg/min | 
9 | LIPC: M. tuberculosis putative lipase/esterase gene product expressed in E. coli (protein, UniProt P96402 1-403, looked up) Esterase LipC: MNQRRAAGSTGVAYIRWLLRARPADYMLALSVAGGSLPVVGKHLKPLGGVTAIGVWGARHASDFLSATAKDLLTPGINEVRRRDRASTQEVSVAALRGIVSPDDLAVEWPAPERTPPVCGALRHRRYVHRRRVLYGDDPAQLLDVWRRKDMPTKPAPVLIFVPGGAWVHGSRAIQGYAVLSRLAAQGWVCLSIDYRVAPHHRWPRHILDVKTAIAWARANVDKFGGDRNFIAVAGCSAGGHLSALAGLTANDPQYQAELPEGSDTSVDAVVGIYGRYDWEDRSTPERARFVDFLERVVVQRTIDRHPEVFRDASPIQRVTRNAPPFLVIHGSRDCVIPVEQARSFVERLRAVSRSQVGYLELPGAGHGFDLLDGARTGPTAHAIALFLNQVHRSRAQFAKEVI | 3.3 nmol/mg/min | 
